We go through six molecules from patent publication US20160185859A1 (Pfizer, published 2016).

Read-outs that look alike come from different tables or passages of the source.

The target in assay [1] is human 5T4 antigen expressed on cells (PC14PE6 cells; MDAMB435/5T4 cells) (human) (UniProt Q13641). The assay can be described thus: FACS of PC14PE6 cells; control.
In assay [2] the target is T1, human 5T4 antigen (human, UniProt Q13641 32-355, limits assumed).
T1 sequence: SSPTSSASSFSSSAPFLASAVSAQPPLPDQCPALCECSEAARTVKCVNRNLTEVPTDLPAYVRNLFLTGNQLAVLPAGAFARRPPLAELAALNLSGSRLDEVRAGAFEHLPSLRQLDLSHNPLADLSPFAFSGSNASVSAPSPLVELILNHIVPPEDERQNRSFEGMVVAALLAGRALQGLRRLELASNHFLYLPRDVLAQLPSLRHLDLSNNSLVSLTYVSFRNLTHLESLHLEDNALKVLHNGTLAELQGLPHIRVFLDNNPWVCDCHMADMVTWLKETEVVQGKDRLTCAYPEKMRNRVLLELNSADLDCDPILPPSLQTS
As to the kind of experiment: ELISA; inhibition of biotinylated chimeric A1 antibody binding to human 5T4. (An ELISA detects its analyte on a solid surface through an enzyme-linked reagent.)

Assay [3] concerns the target T1, human 5T4 antigen. The assay can be described thus: BIACORE; human 5T4 chip saturated with first antibody humanized H8 (competitor); 300 s after injection of second antibody. For orientation: In SPR one partner is held on a chip, and binding of the other changes the refractive index at the surface.
Assay [4] deals with T1, human 5T4 antigen. The assay can be described thus: BIACORE; human 5T4 chip saturated with first antibody humanized H8 (competitor); 150 s after injection of second antibody.
The target of assay [5] is T2, black-tailed marmoset 5T4 ectodomain Fc (black-tailed marmoset; human, UniProt Q13641 32-355).
T2 construct: not shown: Fc constant regions from human IgG1
T2 chain: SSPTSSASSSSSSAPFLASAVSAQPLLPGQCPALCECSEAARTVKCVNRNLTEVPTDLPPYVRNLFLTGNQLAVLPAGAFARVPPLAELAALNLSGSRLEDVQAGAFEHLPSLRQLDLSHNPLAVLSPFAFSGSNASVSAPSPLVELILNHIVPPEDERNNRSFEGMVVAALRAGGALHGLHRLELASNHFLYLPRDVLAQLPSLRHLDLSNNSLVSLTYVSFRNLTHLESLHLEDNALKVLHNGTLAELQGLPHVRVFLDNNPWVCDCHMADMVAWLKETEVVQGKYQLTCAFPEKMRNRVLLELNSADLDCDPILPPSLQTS
As to the kind of experiment: ELISA; 5T4 ectodomain/Fc fusion protein from transiently transfected COS-1 cells; given as ED50. The protocol: (§1) To assay binding of anti-5T4 antibodies, 5T4 ectodomain/Fc fusion proteins were transiently transfected into COS-1 cells, and ELISA assays were performed. Non-relevant human IgG4 and IgG1 antibodies were used as controls.

Assay [6] concerns the target chimpanzee 5T4 ectodomain Fc (chimpanzee; human, UniProt P01857 99-330 = IgG part). The description is as above. On the procedure: as §1
The target of assay [7] is T3, human 5T4 ectodomain Fc (human, UniProt Q13641 32-355).
T3 construct: also called human 5T4 ectodomain Fc fusion protein; Human 5T4 Ectodomain/Fc Fusion; not shown: Fc constant regions from human IgG1
T3 sequence: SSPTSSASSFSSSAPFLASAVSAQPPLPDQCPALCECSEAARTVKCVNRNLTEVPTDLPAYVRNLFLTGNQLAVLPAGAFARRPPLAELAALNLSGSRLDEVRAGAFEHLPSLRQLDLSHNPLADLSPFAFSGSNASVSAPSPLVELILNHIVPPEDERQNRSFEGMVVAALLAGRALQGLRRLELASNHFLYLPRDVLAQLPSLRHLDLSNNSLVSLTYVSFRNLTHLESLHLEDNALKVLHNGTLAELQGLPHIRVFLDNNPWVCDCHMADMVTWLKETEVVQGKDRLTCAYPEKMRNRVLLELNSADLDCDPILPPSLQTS
Described as above. On the procedure: as §1

Assay [8] concerns the target T4, cynomologous monkey 5T4 ectodomain Fc (cynomologous monkey; human, UniProt Q4R8Y9 32-355).
T4 construct: not shown: Fc constant regions from human IgG1
T4 chain: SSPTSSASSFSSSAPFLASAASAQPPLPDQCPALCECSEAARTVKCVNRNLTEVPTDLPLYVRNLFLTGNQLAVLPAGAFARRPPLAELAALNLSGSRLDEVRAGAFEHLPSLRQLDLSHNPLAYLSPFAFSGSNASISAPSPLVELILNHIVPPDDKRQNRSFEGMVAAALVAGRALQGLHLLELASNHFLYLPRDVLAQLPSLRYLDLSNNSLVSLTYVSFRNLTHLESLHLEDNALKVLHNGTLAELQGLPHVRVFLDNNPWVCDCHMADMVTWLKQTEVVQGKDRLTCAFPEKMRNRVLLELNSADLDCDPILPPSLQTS
The description is as above. On the procedure: as §1

Assay [9] deals with T1, human 5T4 antigen. The assay can be described thus: BIACORE (SPR); human 5T4 antigen immobilized on CM5 chip. On the procedure:
(§2) To assess the binding specificity and affinity of the A1, A2, and A3 antibodies, BIACORE® analysis was performed using human 5T4 antigen immobilized on a CM5 chip. BIACORE® technology utilizes changes in the refractive index at the surface layer upon binding of the antibody to the 5T4 antigen immobilized on the layer. Binding is detected by surface plasmon resonance (SPR) of laser light refracting from the surface. Analysis of the signal kinetics on rate and off rate allows discrimination between non-specific and specific interactions. The H8 anti-5T4 antibody was used as a control. H8 is a hybridoma-generated monoclonal mouse IgG1 antibody described in PCT International Publication No. WO 98/55607 and in Forsberg et al. (1997) J. Biol. Chem. 272(19):[…].
To assess the binding specificity and affinity of the chimeric and humanized H8, A1, A2, and A3 antibodies, BIACORE® analysis was performed using human 5T4 antigen immobilized on a CM5 chip. See Example 2.

The target in assay [10] is T1, human 5T4 antigen. The assay can be described thus: BIACORE; human 5T4 chip saturated with first antibody humanized H8 (competitor); 19 s after injection of second antibody.
Assay [11] deals with T1, human 5T4 antigen. As to the kind of experiment: BIACORE; human 5T4 chip saturated with first antibody humanized H8 (competitor); 600 s after injection of second antibody.
For assay [12], the target named is T1, human 5T4 antigen. As to the kind of experiment: BIACORE; human 5T4 chip saturated with first antibody humanized H8 (competitor); 75 s after injection of second antibody.
Assay [13] concerns the target T1, human 5T4 antigen. As to the kind of experiment: BIACORE; human 5T4 chip saturated with first antibody humanized H8 (competitor); 37.5 s after injection of second antibody.
Assay [14] deals with T1, human 5T4 antigen. The assay can be described thus: BIACORE (SPR); human 5T4 antigen immobilized on CM5 chip. On the procedure:
as §2
The source holds these as a separate data set.

Assay [15] concerns the target T1, human 5T4 antigen. The assay can be described thus: BIACORE; human 5T4 chip saturated with first antibody H8 (competitor). On the procedure: Epitope mapping of the H8, A1, A2, and A3 antibodies was also performed using BIACORE® using a CM5 chip with bound human 5T4 antigen. The chip was saturated with H8, A1, A2, or A3 antibody, and a first response was measured. The chip was then saturated with a second antibody from among the H8, A1, A2, and A3 antibodies, and a second response was measured. For multiple experiments, the chip was regenerated by dissociation of the bound antibodies in 10 mM glycine, pH 1.5, followed by a buffer wash. The percentages shown are the response units measured upon binding by a second antibody directly to the CM5 chip divided by the response units measured upon binding of the second antibody to a CM5 chip saturated with a first antibody.

The target in assay [16] is T5, human 5T4 antigen expressed on cells (PC14PE6 cells; MDAMB435/5T4 cells) (human, UniProt Q13641 32-420).
T5 construct: PC14PE6 are human non-small cell lung cancer cells; also called 5T4-expressing PC14PE6 cells
T5 sequence: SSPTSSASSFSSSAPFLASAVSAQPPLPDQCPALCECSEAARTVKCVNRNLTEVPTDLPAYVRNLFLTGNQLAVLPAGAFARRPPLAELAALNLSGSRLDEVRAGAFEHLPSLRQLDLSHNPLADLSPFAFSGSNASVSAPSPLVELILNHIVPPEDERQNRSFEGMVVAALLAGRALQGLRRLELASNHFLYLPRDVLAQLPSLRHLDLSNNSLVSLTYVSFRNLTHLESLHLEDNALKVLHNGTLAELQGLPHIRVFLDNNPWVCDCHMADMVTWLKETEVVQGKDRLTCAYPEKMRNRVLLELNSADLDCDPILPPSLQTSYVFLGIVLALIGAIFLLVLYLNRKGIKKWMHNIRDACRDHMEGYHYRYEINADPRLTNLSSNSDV
As to the kind of experiment: FACS of PC14PE6 cells.

The target in assay [17] is T5, human 5T4 antigen expressed on cells …. The assay can be described thus: cell-based or functional assay.

As to Control (secondary Ab) (antibody), the Mean Cellular Flouresence in assay [1] is 4.
For Control (murine IgG) (antibody), in assay [1], the Mean Cellular Flouresence turned out to be 4.

B1: chimeric A1 antibody (antibody, V domains shown)
VH: QIQLVQSGPELKKPGETVKISCKASGYTFTNFGMNWVKQGPGEGLKWMGWINTNTGEPRYAEEFKGRCAFSLETTASTAYLQINNLKNEDTATYFCARDWDGAYFFDYWGQGTTLTVSS
VL: SIVMTQTPKFLLVSAGDRVTITCKASQSVSNDVAWYQQKPGQSPKLLINFATNRYTGVPNRFTGSGYGTDFTFTISTVQAEDLALYFCQQDYSSPWTFGGGTKLEIK
modifications: Biotinylated when used as the labelled competitor in Table 13; the site is not stated.
notes: also called ChiA1; ChiA1 γ4
Broadly, the IC50 is the concentration that gives 50% inhibition. A word on the EC50: it is the concentration giving half of the maximal effect. The term Kd denotes the concentration at which binding is half-saturated. The koff is the rate constant with which the complex falls apart. One may read the kon as a measure of how fast the partners come together. The molecule B1 returned an IC50 in assay [2] of 16 to 20 nM. Also, the “percentage of second antibody bound following saturation with first antibody” value stood at 97.3% in assay [3]; 95.8% in assay [4]; 92.7% in assay [10]; 98.7% in [11]; 93.8% in assay [12]; 92.4% in assay [13]. For the same molecule, the EC50 in [5] is 0.24 nM; in [6], 0.27 nM; in [7], 0.28 nM; in assay [8], 0.18 nM. This molecule also came in with a Ka in assay [9] of 2.3e+09 M⁻¹. This molecule displayed a Kd in [9] of 0.44 nM. The koff in assay [9] turned out to be 6.7e-05 s⁻¹. In [9], this molecule displayed a kon of 150000 M⁻¹ s⁻¹.

B2: murine anti-5T4 antibody A1 (antibody, V domains shown)
VH: QIQLVQSGPELKKPGETVKISCKASGYTFTNFGMNWVKQGPGEGLKWMGWINTNTGEPRYAEEFKGRCAFSLETTASTAYLQINNLKNEDTATYFCARDWDGAYFFDYWGQGTTLTVSS
VL: SIVMTQTPKFLLVSAGDRVTITCKASQSVSNDVAWYQQKPGQSPKLLINFATNRYTGVPNRFTGSGYGTDFTFTISTVQAEDLALYFCQQDYSSPWTFGGGTKLEIK
In assay [14], B2 returned a Ka of 1.6e+09 M⁻¹, a Kd of 0.64 nM, a koff of 0.00013 s⁻¹ and a kon of 200000 M⁻¹ s⁻¹. The “percentage response of second antibody following saturation with first antibody” value in assay [15] turned out to be 109%. Besides, the “Mean Cellular Flouresence” value in assay [16] was found to be 18.

B3: A2-AcBut-CalichDMH, A2 antibody conjugated to calicheamicin using 4-(4'-acetylphenoxy)butanoic acid (AcBut) (other)
VH: QVQLQQSRPELVKPGASVKMSCKASGYTFTDYVISWVKQRTGQGLEWIGEIYPGSNSIYYNEKFKGRATLTADKSSSTAYMQLSSLTSEDSAVYFCAMGGNYGFDYWGQGTTLTVSS
VL: QIVLTQSPAIMSASLGERVTLTCTASSSVNSNYLHWYQQKPGSSPKLWIYSTSNLASGVPARFSGSGSGTSYSLTISSMEAEDAATYYCHQYHRSPLTFGAGTKLELK
modifications: calicheamicin (CalichDMH) conjugated to the antibody through the AcBut linker; residues carrying it not stated
For the molecule B3, the “Fold CalichDMH, MTS assay, MDAMB435/5T4 cells” value in assay [17] stood at 0.13 fold.

B4: chimeric A2 antibody (antibody, human IgG4, V domains shown)
VH: QVQLQQSRPELVKPGASVKMSCKASGYTFTDYVISWVKQRTGQGLEWIGEIYPGSNSIYYNEKFKGRATLTADKSSSTAYMQLSSLTSEDSAVYFCAMGGNYGFDYWGQGTTLTVSS
VL: QIVLTQSPAIMSASLGERVTLTCTASSSVNSNYLHWYQQKPGSSPKLWIYSTSNLASGVPARFSGSGSGTSYSLTISSMEAEDAATYYCHQYHRSPLTFGAGTKLELK
notes: also called ChiA2; ChiA2 γ4
For the molecule B4, the “percentage of second antibody bound following saturation with first antibody” value in assay [3] is 93.7%; in assay [4], 90.5%; in [10], 86.9%; in assay [11] it was 96.7%; in assay [12], 86.9%; in assay [13], 84.7%. In addition, the EC50 in [5] stood at 0.22 nM; in [6], 0.22 nM; in [7], 0.21 nM; in assay [8], 0.18 nM. The molecule also displayed a Ka in assay [9] of 5.7e+08 M⁻¹. This molecule also came in with a Kd in [9] of 1.8 nM. The koff in [9] stood at 0.00025 s⁻¹. In [9], the kon was 140000 M⁻¹ s⁻¹.
